Assay results taken from paper doi:10.1101/188136 (bioRxiv, 2017).

Target: the molecule itself
Experiment: crystal structure

B1: BrlR (transcriptional regulator BrlR from Pseudomonas aeruginosa) (natural protein, UniProt Q9HUT5 1-270, looked up)
chain: MLTIGQLARIFEISTKTLRHYDAIGLFVPARTGSDNGYRYYQPEQIEQLSRILALRRLDVPLEAIDRLKRDGALDDPQRLRHFLQRHQHTLREEISARQRLLAELDRTLATLAHWRIRNMHARIVERPAFSVVGMEYFGSAPGDTIGQLWERFIPREHEIAGKHDPEVSYGICAQQPNGEFHYVAGFEVQEGWPVPEGMVRFQVPAQKYAVFTHKGTAPQIAESFQAIYSHLLAERGLEPKAGVDFEYYDQRFRGPLDPNSQVDLYIPIY
- stoichiometry N: 4
